According to patent US20110166062A1 (INDIANA UNIVERSITY RESEARCH AND TECHNOLOGY, published 2011):
Bridges are numbered along the chain shown (N, C = ends). Primed or numbered codes have the meaning given here. Where no end group is shown, it is not given here. Side-chain parts run from the residue outwards. [ ]: non-standard residue; d: D form. maleimide = maleimide group on activated PEG, it reacts with the Cys thiol (Michael addition) to give a thioether linkage; PEG 40 kDa″ = polyethylene glycol of 40 kDa covalently attached to the side chain; PEG 40 kDa = PEG (40 kDa) covalently attached to Cys; Aib = CC(C)(N)C(=O)O

T1: GIP receptor (UniProt P48546 22-466)
T1 sequence (looked up): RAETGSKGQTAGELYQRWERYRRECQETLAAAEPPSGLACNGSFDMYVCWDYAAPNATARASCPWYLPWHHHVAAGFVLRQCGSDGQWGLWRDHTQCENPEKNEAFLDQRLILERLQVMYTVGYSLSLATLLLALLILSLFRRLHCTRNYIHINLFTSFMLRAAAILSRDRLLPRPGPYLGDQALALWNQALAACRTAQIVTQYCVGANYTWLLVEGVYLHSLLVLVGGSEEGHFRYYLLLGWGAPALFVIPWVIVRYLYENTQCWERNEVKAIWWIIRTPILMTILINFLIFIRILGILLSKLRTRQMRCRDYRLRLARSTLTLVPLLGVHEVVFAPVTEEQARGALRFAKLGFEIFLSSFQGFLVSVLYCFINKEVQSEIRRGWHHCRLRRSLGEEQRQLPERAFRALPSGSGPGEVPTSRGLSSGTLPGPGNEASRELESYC


How the values were obtained:
Assay in all cases: cell-based or functional assay
glucagon receptor = glucagon receptor (UniProt P47871 26-477, limits assumed)
Sequence of glucagon receptor (P47871 26-477 limits assumed): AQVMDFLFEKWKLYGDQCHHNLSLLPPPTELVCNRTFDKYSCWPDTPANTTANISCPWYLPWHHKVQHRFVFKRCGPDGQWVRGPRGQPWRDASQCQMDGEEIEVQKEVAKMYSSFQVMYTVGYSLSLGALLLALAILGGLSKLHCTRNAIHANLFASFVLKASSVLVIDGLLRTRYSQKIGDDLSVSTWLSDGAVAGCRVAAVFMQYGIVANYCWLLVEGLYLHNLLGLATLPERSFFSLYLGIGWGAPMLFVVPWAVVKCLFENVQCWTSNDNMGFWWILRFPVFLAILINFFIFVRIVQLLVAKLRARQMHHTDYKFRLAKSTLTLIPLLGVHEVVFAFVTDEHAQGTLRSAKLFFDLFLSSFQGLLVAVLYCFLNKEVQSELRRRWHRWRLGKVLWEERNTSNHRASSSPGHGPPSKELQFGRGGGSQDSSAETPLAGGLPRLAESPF

GLP-1 receptor = GLP-1 receptor (UniProt P43220 24-463, limits assumed)
GIP receptor = target: T1, GIP receptor

Binder	EC50 (glucagon receptor) [nM]	relative activity (glucagon receptor) [%]	EC50 (GLP-1 receptor) [nM]	EC50 (GIP receptor) [nM]	relative activity (GLP-1 receptor) [%]	relative activity (GIP receptor) [%]
Y[Aib]EGTFTSDYSIYLDEQAAKEFVNWLLAGKGKKNWLKHNITQC-NH2 (lactam 16-20) [mt-206]	331	0.01	0.095	0.115	–	–
GTFTSDYSIYLDEQAAKEFVNWLLAG-NH2 (lactam 13-17; N-terminus assumed; SMILES CC[C@H](C)[C@H](NC(=O)[C@H](CO)NC(=O)[C@H](Cc1ccc(O)cc1)NC(=O)[C@H](CC(=O)O)NC(=O)[C@H](CO)NC(=O)[C@@H](NC(=O)[C@H](Cc1ccccc1)NC(=O)[C@@H](NC(=O)CN)[C@@H](C)O)[C@@H](C)O)C(=O)N[C@@H](Cc1ccc(O)cc1)C(=O)N[C@@H](CC(C)C)C(=O)N[C@@H](CC(=O)O)C(=O)N[C@H]1CCC(=O)NCCCC[C@@H](C(=O)N[C@@H](CCC(=O)O)C(=O)N[C@@H](Cc2ccccc2)C(=O)N[C@H](C(=O)N[C@@H](CC(N)=O)C(=O)N[C@@H](Cc2c[nH]c3ccccc23)C(=O)N[C@@H](CC(C)C)C(=O)N[C@@H](CC(C)C)C(=O)N[C@@H](C)C(=O)NCC(N)=O)C(C)C)NC(=O)[C@H](C)NC(=O)[C@H](C)NC(=O)[C@H](CCC(N)=O)NC1=O) [mt-197]	47.7	0.13	35.3	–	0.07	–
Y[Aib]QGTFTSDYSIYLDEQAAKEFVC(PEG 40 kDa″)WLMNG-NH2 (lactam 16-20) [mt-186]	1.58	2.22	0.5	15.2	2.8	0.14
Y[Aib]QGTFISDYSIYLDEQAAKEFVNWLLAGGPSSGAPPPSC-NH2 (lactam 16-20) [mt-176]	0.141	–	8.69	0.055	–	–
Y[Aib]QGTFTSDYSIYLDEQAAKEFVC(PEG 40 kDa)WLLAG-NH2 (lactam 16-20) [mt-172]	9.16	0.45	0.859	7.54	3.43	0.25
Y[Aib]EGTFTSDYSIYLDEQAAKEFVNWLLAGGPSSGAPPPSC([maleimide-PEG 40 kDa])-NH2 (lactam 16-20) [mt-178]	8.25	0.42	0.171	0.448	8.19	4.69
Y[Aib]QGTFTSDYSIYLDEEAVRLFVNWLLAGGPSSGAPPPS-NH2 (N-terminus assumed; SMILES CC[C@H](C)[C@H](NC(=O)[C@H](CO)NC(=O)[C@H](Cc1ccc(O)cc1)NC(=O)[C@H](CC(=O)O)NC(=O)[C@H](CO)NC(=O)[C@@H](NC(=O)[C@H](Cc1ccccc1)NC(=O)[C@@H](NC(=O)CNC(=O)[C@H](CCC(N)=O)NC(=O)C(C)(C)NC(=O)[C@@H](N)Cc1ccc(O)cc1)[C@@H](C)O)[C@@H](C)O)C(=O)N[C@@H](Cc1ccc(O)cc1)C(=O)N[C@@H](CC(C)C)C(=O)N[C@@H](CC(=O)O)C(=O)N[C@@H](CCC(=O)O)C(=O)N[C@@H](CCC(=O)O)C(=O)N[C@@H](C)C(=O)N[C@H](C(=O)N[C@@H](CCCNC(=N)N)C(=O)N[C@@H](CC(C)C)C(=O)N[C@@H](Cc1ccccc1)C(=O)N[C@H](C(=O)N[C@@H](CC(N)=O)C(=O)N[C@@H](Cc1c[nH]c2ccccc12)C(=O)N[C@@H](CC(C)C)C(=O)N[C@@H](CC(C)C)C(=O)N[C@@H](C)C(=O)NCC(=O)NCC(=O)N1CCC[C@H]1C(=O)N[C@@H](CO)C(=O)N[C@@H](CO)C(=O)NCC(=O)N[C@@H](C)C(=O)N1CCC[C@H]1C(=O)N1CCC[C@H]1C(=O)N1CCC[C@H]1C(=O)N[C@@H](CO)C(N)=O)C(C)C)C(C)C) [mt-201]	26.7	0.24	0.012	0.072	192	44.4
Y[Aib]EGTFTSDYSIYLDEQAAKEFVNWLLAGGPSSGAPPPSC-NH2 (lactam 16-20; N-terminus assumed; SMILES CC[C@H](C)[C@H](NC(=O)[C@H](CO)NC(=O)[C@H](Cc1ccc(O)cc1)NC(=O)[C@H](CC(=O)O)NC(=O)[C@H](CO)NC(=O)[C@@H](NC(=O)[C@H](Cc1ccccc1)NC(=O)[C@@H](NC(=O)CNC(=O)[C@H](CCC(=O)O)NC(=O)C(C)(C)NC(=O)[C@@H](N)Cc1ccc(O)cc1)[C@@H](C)O)[C@@H](C)O)C(=O)N[C@@H](Cc1ccc(O)cc1)C(=O)N[C@@H](CC(C)C)C(=O)N[C@@H](CC(=O)O)C(=O)N[C@H]1CCC(=O)NCCCC[C@@H](C(=O)N[C@@H](CCC(=O)O)C(=O)N[C@@H](Cc2ccccc2)C(=O)N[C@H](C(=O)N[C@@H](CC(N)=O)C(=O)N[C@@H](Cc2c[nH]c3ccccc23)C(=O)N[C@@H](CC(C)C)C(=O)N[C@@H](CC(C)C)C(=O)N[C@@H](C)C(=O)NCC(=O)NCC(=O)N2CCC[C@H]2C(=O)N[C@@H](CO)C(=O)N[C@@H](CO)C(=O)NCC(=O)N[C@@H](C)C(=O)N2CCC[C@H]2C(=O)N2CCC[C@H]2C(=O)N2CCC[C@H]2C(=O)N[C@@H](CO)C(=O)N[C@@H](CS)C(N)=O)C(C)C)NC(=O)[C@H](C)NC(=O)[C@H](C)NC(=O)[C@H](CCC(N)=O)NC1=O) [mt-174]	57.5	0.06	0.017	0.023	118	95.7
Y[Aib]QGTFISDYSIYLDEQAAKEFVNWLLAGGPSSGAPPPSC(PEG 40 kDa)-NH2 (lactam 16-20) [mt-182]	–	–	10	0.08	–	–
Y[Aib]QGTFTSDYSIYLDEQAAKEFVNWLLAGGPSSGAPPPS-NH2 (N-terminus assumed; SMILES CC[C@H](C)[C@H](NC(=O)[C@H](CO)NC(=O)[C@H](Cc1ccc(O)cc1)NC(=O)[C@H](CC(=O)O)NC(=O)[C@H](CO)NC(=O)[C@@H](NC(=O)[C@H](Cc1ccccc1)NC(=O)[C@@H](NC(=O)CNC(=O)[C@H](CCC(N)=O)NC(=O)C(C)(C)NC(=O)[C@@H](N)Cc1ccc(O)cc1)[C@@H](C)O)[C@@H](C)O)C(=O)N[C@@H](Cc1ccc(O)cc1)C(=O)N[C@@H](CC(C)C)C(=O)N[C@@H](CC(=O)O)C(=O)N[C@@H](CCC(=O)O)C(=O)N[C@@H](CCC(N)=O)C(=O)N[C@@H](C)C(=O)N[C@@H](C)C(=O)N[C@@H](CCCCN)C(=O)N[C@@H](CCC(=O)O)C(=O)N[C@@H](Cc1ccccc1)C(=O)N[C@H](C(=O)N[C@@H](CC(N)=O)C(=O)N[C@@H](Cc1c[nH]c2ccccc12)C(=O)N[C@@H](CC(C)C)C(=O)N[C@@H](CC(C)C)C(=O)N[C@@H](C)C(=O)NCC(=O)NCC(=O)N1CCC[C@H]1C(=O)N[C@@H](CO)C(=O)N[C@@H](CO)C(=O)NCC(=O)N[C@@H](C)C(=O)N1CCC[C@H]1C(=O)N1CCC[C@H]1C(=O)N1CCC[C@H]1C(=O)N[C@@H](CO)C(N)=O)C(C)C) [mt-191]	1.46	4.32	0.011	0.189	209	16.9
[Aib]QGTFTSDYSIYLDEQAAKEFVNWLLAG-NH2 (lactam 15-19; N-terminus assumed; SMILES CC[C@H](C)[C@H](NC(=O)[C@H](CO)NC(=O)[C@H](Cc1ccc(O)cc1)NC(=O)[C@H](CC(=O)O)NC(=O)[C@H](CO)NC(=O)[C@@H](NC(=O)[C@H](Cc1ccccc1)NC(=O)[C@@H](NC(=O)CNC(=O)[C@H](CCC(N)=O)NC(=O)C(C)(C)N)[C@@H](C)O)[C@@H](C)O)C(=O)N[C@@H](Cc1ccc(O)cc1)C(=O)N[C@@H](CC(C)C)C(=O)N[C@@H](CC(=O)O)C(=O)N[C@H]1CCC(=O)NCCCC[C@@H](C(=O)N[C@@H](CCC(=O)O)C(=O)N[C@@H](Cc2ccccc2)C(=O)N[C@H](C(=O)N[C@@H](CC(N)=O)C(=O)N[C@@H](Cc2c[nH]c3ccccc23)C(=O)N[C@@H](CC(C)C)C(=O)N[C@@H](CC(C)C)C(=O)N[C@@H](C)C(=O)NCC(N)=O)C(C)C)NC(=O)[C@H](C)NC(=O)[C@H](C)NC(=O)[C@H](CCC(N)=O)NC1=O) [mt-198]	11.9	0.53	13.2	149	0.17	0.02
Y[Aib]QGTFTSDYSIYLDEQAAKEFVC(PEG 40 kDa)WLLAGGPSSGAPPPS-NH2 (lactam 16-20) [mt-175]	2.42	1.49	0.22	1.93	5.91	0.93
Y[Aib]QGTFTSDYSIYLDEQAAKEFVNWLLAGKGKKNWLKHNITQC-NH2 (lactam 16-20) [mt-207]	3.2	1.31	0.073	0.622	42.5	2.41
